The text below walks through data of US12338268B2, “Compositions and methods for treating protein aggregation-associated diseases” (The Board of Trustees of the Leland Stanford Junior …, priority 2019, dated 2025).

The target in test [1] is T1, mutant Huntingtin exon 1 (mHttQ51) (Homo sapiens, UniProt P42858, INS38QQQQQQQQQQQQQQQQQQQQQQQQQQQQQQQ).
T1 construct: mutant Huntingtin exon 1 containing a pathogenic stretch of 51 glutamines (mHttQ51); GST (N, cleaved yes); made in house; host or cells: E. coli Rosetta 2(DE3) pLysS
As to the kind of experiment: In vitro filter trap aggregation assay of mutant Huntingtin exon 1. It is filed as biochemical. The settings on record: 5× or 10× molar excess of peptides. The method, then: Mutant Huntingtin and PolyQ51 aggregation reactions were performed at concentration 3 μM of mHttQ51, 0.044 Units/μl acTEV protease (Invitrogen, Carlsbad, CA, USA), and respective concentrations of Ovalbumin (Sigma) or purified NAC chaperone variants. Aggregation was conducted in TEV reaction buffer (Invitrogen) and incubated at 30° C. AtxQ78 was buffer exchanged into TEV reaction buffer using 7K MWCO Zeba Spin Desalting Columns (Thermo Fisher) to initiate aggregation. AtxQ78 aggregation reactions were performed at 30 μM of Ataxin-3 in reaction buffer (20 mM sodium phosphate pH 7.5, 25 mM NaCl, 6 mM MgCl2, 2 mM DTT, 5% (v/v) glycerol) and incubated at 37° C. Samples at varied time-points were then taken and combined in a 1:1 ratio with a 4% (w/v) SDS, 100 mM DTT solution, boiled for 5 min at 95° C., and stored at −20° C. Samples were then filtered through a 0.22 μm cellulose acetate membrane (Whatman) and washed with 0.1% (w/v) SDS. Membrane was probed using an S-tag antibody (Abcam) for mHttQ51 and PolyQ51, and with a His-tag antibody (Abcam) for AtxQ78.

Test [2] deals with yeast model systems and tissue culture cells. Nature of the test: Neurotoxicity associated with Huntington's Disease in yeast model systems and tissue culture cells. It is filed as cell-based. The conditions noted are these: elevated levels of the subunit.

T1 sequence (P42858 with tags, fused parts or gaps with the stated changes limits assumed): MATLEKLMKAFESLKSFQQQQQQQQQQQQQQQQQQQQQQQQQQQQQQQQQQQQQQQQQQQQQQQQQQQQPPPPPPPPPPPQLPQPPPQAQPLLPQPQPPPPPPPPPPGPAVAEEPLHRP

For the substance “C. elegans N-βNAC peptide: synthetic peptide corresponding to the N-terminal region of C. elegans βNAC (SEQ ID NO:1) (MDSKAIAERIKKLQAQQEHVRIGGKGTPRRKKKVIHKTAA)”, the mHttQ51 aggregation entry in test [1] is reported as “sufficient to suppress aggregation of mHttQ51”. Consider “full length CCT1 subunit: single subunit of the TRiC/CCT chaperonin complex”, for which the “neurotoxicity associated with Huntington's Disease” value in test [2] was “suppress neurotoxicity”.
